B1: AB11-2 (antibody, V domains shown)
VH: EVQLVESGGGLVQPGGSLRLSCAASGFTFSSFGMHWVRQAPGKGLEWVAYISSDSRTIYYADSVKGRFTISRDNAKNSLYLQMNSLRAEDTAVYYCARDYGRTYEAYWGQGTLVTVSS
VL: DIVMTQSPDSLAVSLGERATINCRASKSVSTSGYSYIHWYQQKPGQPPKLLIYLASNLESGVPDRFSGSGSGTDFTLTISSLQAEDVAVYYCQHSRELPLTFGQGTKLEIK
notes: Humanized; also called humanized AB 11-2
B2: AB11-3 (antibody, V domains shown)
VH: EVQLVESGGGLVQPGGSLRLSCAASGFTFSSFGMHWVRQAPGKGLEWVAYISSDSRTIYYADSVKGRFTISRDNAKNSLYLQMNSLRAEDTAVYYCARDYGRTYEAYWGQGTLVTVSS
VL: DIVLTQSPDSLAVSLGERATINCRASKSVSTSGYSYIHWYQQKPGQPPKLLIYLASNLESGVPDRFSGSGSGTDFTLTISSVQAEDVAVYYCQHSRELPLTFGQGTKLELK
notes: Humanized; also called humanized AB 11-3
B3: AB1-6 (antibody, V domains shown)
VH: QVQLVQSGAEVKKPGASVKMSCKASGYTFTTYTMHWVRQAPGQGLEWIGFINPSSGYTDYAQKFQGRVTLTADTSTSTVYMELSSLRSEDTAVYYCANGDYYVAYWGQGTLVTVSS
VL: DIQMTQSPSSLSASVGDRVTITCTASSSVSSTYFHWYQQKPGKAPKLLIYSTSNLASGVPSRFSGSGSGTDYTLTISSLQPEDFATYYCHQYHRSPLTFGQGTKLEIK
notes: Humanized; also called humanized AB 1-6
B4: AB1-8 (antibody, V domains shown)
VH: QVQLVQSGAEVKKPGASVKMSCKASGYTFTTYTMHWVRQAPGQGLEWIGFINPSSGYTDYAQKFQGRVTLTADTSTSTVYMELSSLRSEDTAVYYCANGDYYVAYWGQGTLVTVSS
VL: DIQLTQSPSSLSASVGDRVTMTCTASSSVSSTYFHWYQQKPGKAPKLWIYSTSNLASGVPSRFSGSGSGTDYTLTISSMQPEDAATYYCHQYHRSPLTFGQGTKLEIK
notes: Humanized; also called humanized AB 1-8
B5: AB3-chim (antibody, V domains shown)
VH: EVKLEESGGGLVQPGGSMKLSCVASGFTFSNYWMNWVRQSPEKGLEWVAQIRLKSDNYATHYAESVKGRFTISRDDSKRSVYLQMNNLRAEDTGTYYCNDGPPSGCWGQGTTLIVSS
VL: DIQMTQSPASLSASVGETVTITCRISENIYSYLAWYQQKQGKSPQLLVYNAKILVEGVPSRFSGSGSGTQFSLKINSLQPEDFGNYYCQHHYTVPWTFGGGTKLEIK
notes: Parental antibody prior to humanization ('chim'); also called pre-humanized form of AB3
B6: AB9-4 (antibody, V domains shown)
VH: QVQLVQSGAEVKKPGASVKMSCKASGYRFTDYNMHWVRQAPGQGLEWIGYINPNNGGTNYAQKFQGRATLTVDTSTSTAYMELSSLRSEDTAVYYCARDYLYFFDCWGQGTLLTVSS
VL: DIQMTQSPSSLSASVGDRVTITCRASQTIGTWLAWYQQKPGKAPKLLIYAAASLADGVPSRFSGSGSGTDFTFTISSLQPEDFVTYYCQQLYSIPRTFGQGTKLEIK
notes: Humanized; also called humanized AB 9-4
B7: AB4-4 (antibody, V domains shown)
VH: QVQLVQSGAEVKKPGASVKMSCKASGYTFTSYTMHWIRQAPGQGLEWIGYINPSSTYTHYAQKFQGRATLTADTSTSTAYMELSSLRSEDTAVYYCSRGELGGFAYWGQGTLVTVSS
VL: DVVMTQSPLSLPVTLGQPASISCRSSQSLVHSDGNTYLNWYQQRPGQSPRLLIYKVSNRFSGVPDRFSGSGSGTDFTLKISRVEAEDVGVYYCSQSTHVPYTFGQGTKLEIK
notes: Humanized; also called humanized AB 4-4
B8: AB4-5 (antibody, V domains shown)
VH: QVQLVQSGAEVKKPGASVKMSCKASGYTFTSYTMHWIRQAPGQGQEWIGYINPSSTYTHYAQKFQGRATLTADTSTSTAYMELSSLRSEDTAVYYCSRGELGGFAYWGQGTLVTVSS
VL: DVVMTQSPLSLPVTLGQPASISCRSSQSLVHSDGNTYLNWYQQRPGQSPRLLIYKVSNRFSGVPDRFSGSGSGTDFTLKISRVEAEDVGVYYCSQSTHVPYTFGQGTKLEIK
notes: Humanized; also called humanized AB 4-5
B9: AB4-3 (antibody, V domains shown)
VH: QVQLVQSGAEVKKPGASVKVSCKASGYTFTSYTMHWVRQAPGQGLEWMGYINPSSTYTHYAQKFQGRVTMTADTSTSTVYMELSSLRSEDTAVYYCSRGELGGFAYWGQGTLVTVSS
VL: DVVMTQSPLSLPVTLGQPASISCRSSQSLVHSDGNTYLNWYQQRPGQSPRLLIYKVSNRFSGVPDRFSGSGSGTDFTLKISRVEAEDVGVYYCSQSTHVPYTFGQGTKLEIK
notes: Humanized; also called humanized AB 4-3
B10: AB11-chim (antibody, V domains shown)
VH: DVQLVESGGGLVQPRGSRKLSCAASGFTFSSFGMHWVRQAPEKGLEWVAYISSDSRTIYYADTVKGRFTISRDNPTNTLFLQMTSLRSEDTAMYYCARDYGRTYEAYWGQGTLVTVSA
VL: DIVLTQSPASLAVSLGQRATISCRASKSVSTSGYSYIHWYQQKPGQPPKLLIYLASNLESGVPARFSGSGSGTDFTLNIHPVEEEDAATYYCQHSRELPLTFGAGTKLELK
notes: Parental antibody prior to humanization ('chim'); also called pre-humanized form of AB11
B11: AB3-7 conjugated to MC-VC-PAB-MMAE (conventional) (antibody, V domains shown)
VH: EVQLLESGGGLVQPGGSMRLSCAASGFTFSNYWMNWVRQAPGKGLEWVAQIRLKSDNYATHYADSVKGRFTISRDDSKNTVYLQMNSLRAEDTGVYYCNDGPPSGSWGQGTLLTVSS
VL: DIQMTQSPSSLSASVGDRVTITCRISENIYSYLAWYQQKPGKAPKLLVYNAKILVEGVPSRFSGSGSGTDFTLTISSLQPEDFGTYYCQHHYTVPWTFGQGTKLEIK
modifications: MC-VC-PAB-MMAE conjugated to the antibody, heterogeneous (conventional); sites not stated
notes: Antibody-drug conjugate of humanized AB3-7 (WuXi Biologics); also called CLDN6 ADC; ADC-23 (conventional)
B12: AB3-3 (antibody, V domains shown)
VH: EVQLLESGGGLVQPGGSMRLSCAASGFTFSNYWMNWVRQAPGKGLEWVAQIRLKSDNYATHYADSVKGRFTISRDDSKNTVYLQMNSLRAEDTGVYYCNDGPPSGCWGQGTLLTVSS
VL: DIQMTQSPSSLSASVGDRVTITCRISENIYSYLAWYQQKPGKAPKLLVYNAKILVEGVPSRFSGSGSGTDFTLTISSLQPEDFGTYYCQHHYTVPWTFGQGTKLEIK
notes: Humanized; also called humanized AB 3-3
B13: AB3-4 (antibody, V domains shown)
VH: EVQLLESGGGLVQPGGSMRLSCAASGFTFSNYWMNWVRQAPGKGLEWVAQIRLKSDNYATHYADSVKGRFTISRDDSKNTVYLQMNSLRAEDTGVYYCNDGPPSGYWGQGTLLTVSS
VL: DIQMTQSPSSLSASVGDRVTITCRISENIYSYLAWYQQKPGKAPKLLIYNAKILVEGVPSRFSGSGSGTDFTLTISSLQPEDFATYYCQHHYTVPWTFGQGTKLEIK
notes: Humanized; full-length IgG; also called humanized AB 3-4

Legend:
[1] = molecular target: T1, human CLDN6, endogenously expressed on cancer cell lines (human, UniProt P56747 1-220); test: FACS, ARK2 cells, 0.3 ug Ab
T1 construct: also called Endogenous CLDN6+; CLDN6 on ARK2, OVCA429, UMUC4 cells
T1 sequence: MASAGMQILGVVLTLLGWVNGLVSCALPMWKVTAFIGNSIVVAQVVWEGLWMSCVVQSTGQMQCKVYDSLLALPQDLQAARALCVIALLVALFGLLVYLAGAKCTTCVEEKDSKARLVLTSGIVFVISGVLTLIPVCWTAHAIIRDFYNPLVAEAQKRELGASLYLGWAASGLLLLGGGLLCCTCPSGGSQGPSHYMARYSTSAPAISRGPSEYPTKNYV

[2] = molecular target: T1, human CLDN6, endogenously expressed on …; test: FACS, ARK2 cells, 1.5 ug Ab
[3] = molecular target: T2, mouse CLDN6 fused to GFP, expressed on engineered HEK293T cells (mouse, UniProt Q9Z262 1-219); test: FACS, 293T clone with mouse CLDN6
T2 construct: whole, on cells; also called HEK293T-CLDN6-mGFP Artificial CLDN6+ (mouse); murine CLDN6; not shown: GFP tag
T2 sequence (looked up): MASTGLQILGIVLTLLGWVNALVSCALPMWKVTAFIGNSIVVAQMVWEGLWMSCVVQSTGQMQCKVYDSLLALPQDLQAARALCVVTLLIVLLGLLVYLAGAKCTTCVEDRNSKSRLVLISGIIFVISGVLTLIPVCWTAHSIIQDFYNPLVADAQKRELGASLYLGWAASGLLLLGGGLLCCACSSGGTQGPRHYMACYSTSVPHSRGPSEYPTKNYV

[4] = molecular target: T1, human CLDN6, endogenously expressed on …; test: FACS, OVCA429 cells, 1.5 ug Ab
[5] = molecular target: T1, human CLDN6, endogenously expressed on …; test: flow cytometry on UMUC4 cells (Positive Cell Line), anti-human IgG Fc secondary antibody

| Binder | FACS signal [1] | FACS signal [2] | FACS signal [3] | FACS signal [4] | flow cytometry signal at 0.1µg Ab/Sample [5] | flow cytometry signal at 1µg Ab/Sample [5] |
| --- | --- | --- | --- | --- | --- | --- |
| B1 | 1400 | 1940 | 7160 | 2690 | – | – |
| B2 | 1320 | 1540 | 5520 | 2200 | – | – |
| B3 | 2820 | 7740 | 77600 | 29900 | – | – |
| B4 | 5810 | 17600 | 122000 | 66000 | – | – |
| B5 | 17100 | 29100 | 67900 | 138000 | – | – |
| B6 | 1120 | 1550 | 1710 | 1110 | – | – |
| B7 | 1050 | 1400 | 741 | 1200 | – | – |
| B8 | 967 | 1200 | 2000 | 1350 | – | – |
| B9 | 1190 | 1520 | 671 | 1160 | – | – |
| B10 | 1320 | 1260 | 5490 | 2440 | – | – |
| B11 | – | – | – | – | 8910 | 28800 |
| B12 | 1160 | 54900 | 23000 | 88700 | – | – |
| B13 | 1320 | 1460 | 1520 | 2960 | – | – |
